Assay results taken from patent US20030119038A1, “NARC1, novel subtilase-like homologs” (priority 1999, published 2003).
Residue numbers refer to the chain shown, from its start. In names and notes the source's numbering stands. Entries after “also recorded” stand apart in the source; their conditions may differ. Read-outs that look alike come from different tables or passages of the source.

B1: S385A: Full-length NARC1 point mutant; mutation of the active site serine (protein)
chain: MGIRCSTWLRWPLSPQLLLLLLLCPTGSRAQDEDGDYEELMLALPSQEDSLVDEASHVATATFRRCSKEAWRLPGTYVVVLMEETQRLQVEQTAHRLQTWAARRGYVIKVLHVFYDLFPGFLVKMSSDLLGLALKLPHVEYIEEDSLVFAQSIPWNLERIIPAWQQTEEDSSPDGSSQVEVYLLDTSIQSGHREIEGRVTITDFNSVPEEDGTRFHRQASKCDSHGTHLAGVVSGRDAGVAKGTSLHSLRVLNCQGKGTVSGTLIGLEFIRKSQLIQPSGPLVVLLPLAGGYSRILNTACQRLARTGVVLVAAAGNFRDDACLYSPASAPEVITVGATNAQDQPVTLGTLGTNFGRCVDLFAPGKDIIGASSDCSTCYMSQSGTAQAAAHVAGIVAMMLNRDPALTLAELRQRLILFSTKDVINMAWFPEDQRVLTPNRVATLPPSTQETGGQLLCRTVWSAHSGPTRTATATARCAPEEELLSCSSFSRSGRRRGDRIEAIGGQQVCKALNAFGGEGVYAVARCCLLPRVNCSIHNTPAARAGPQTPVHCHQKDHVLTGCSFHWEVENLRAQQQPLLRSRHQPGQCVGHQEASVHASCCHAPGLECKIKEHGIAGPAEQVTVACEAGWTLTGCNVLPGASLPLGAYSVDNVCVARIRDAGRADRTSEEATVAAAICCRSRPSAKASWVHQ
modifications: mutant of rat sequence mutating amino acid Ser385Ala of SEQ ID NO9
B2: H225W, S385A: Full-length NARC1 double mutant; active site histidine and serine mutated (protein)
chain: B1 chain with H225W
modifications: mutant of rat sequence mutating amino acid His225Trp and Ser385Ala of SEQ ID NO9

Tests used:
Caspase 9 transfection = details: 24-hour exposure
Text: (§1) The serine protease inhibitors Aminoethyl-benzene sulfonyl fluoride, an irreversible inhibitor (AEBSF), Aprotinin, a reversible inhibitor, and N-Tosyl-lysine-chloromethylketone (TLCK, an inhibitor known to covalently bind to serine proteases) were investigated to see if any of these reagents can rescue the cell death effects of wild-type NARC1. Caspase 9 transfection was included to test for specificity of any rescue effects.

NARC1 transfectants = system: NARC1 transfectants
Procedure: Following transient expression of this construct in CGNs, the percentage of GFP positive and GFP negative cells undergoing apoptosis was determined by Laser-Scanning Cytometry.
Following transient expression of the wild-type and point-mutant NARC1 constructs in CGNs, the percentage of GFP-positive cells undergoing apoptosis was determined by Laser-Scanning Cytometry.
as §1
CGNs were transfected with each of the C-terminal truncation mutants described above. Following transient expression of these constructs, the percentage of GFP positive cells undergoing apoptosis was determined by Laser-Scanning Cytometry.

furin [1] = details: Bathurst (1987); cited from earlier work
furin [2] = molecular target: furin (Homo sapiens, UniProt P09958); details: cited from earlier work
Ntera2 cells = experiment: NARC1-EGFP transfection of Ntera2 cells, nuclear area condensation; assay type: cell-based, human; details: C-terminal EGFP constructs, 24 hours
Procedure: Specifically, Ntera2 cells were transfected with C-terminal EGFP constructs of wild-type NARC1, each of the point-mutant NARC1s, and caspase 9. At 24 hours, nuclear area condensation was assessed for the entire Ntera2 cell population and compared to nuclear area condensation for the transfected cell population.

NARC1 = experiment: Autoprocessing of NARC1 transiently expressed in COS-7 cells, Western blotting; assay type: cell-based, rat; details: C-terminal myc/His fusion transiently expressed in COS-7 cells, 60 kD processing product on Western blot
Procedure: The wild-type NARC1-myc/His clone was transiently expressed in COS-7 cells. The cells were then harvested, lysed, and the protein extracted. Polyacrylamide gel electrophoresis was then carried out on the protein extracts, followed by Western blotting. The resulting membranes were probed using both anti-myc- and NARC1-specific antibodies. Routine techniques and protocols were followed. See, e.g., Ausubel et al.(1998), supra.
This cleavage event maps to approximately the junction between the pro-domain and the enzymatic domain.
Autoprocessing of NARC1 was investigated as follows. COS-7 cells were co-transfected with the following EGFP and myc plasmids: (A) wild-type NARC1-myc and wild-type NARC1-EGFP; (B) S385A NARC1-myc and S385A NARC1-EGFP; and (C) wild-type NARC1-myc and S385A NARC1-myc. The cells were then harvested, lysed, and the protein extracted. Polyacrylamide gel electrophoresis was then carried out on the protein extracts, followed by Western blotting. The resulting membranes were sequentially probed using first the anti-myc and then the anti-EGFP monoclonal antibodies (Abs). Thus, the experiment allowed sequential detection of the separate NARC1 products encoded from the two co-transfected plasmids.
As indicated above, a series of C-terminal truncation mutants were generated. The truncation NARC1-myc/His clones were transiently expressed in COS-7 cells. The cells were then harvested, lysed, the protein extracted, and polyacrylamide gel electrophoresis carried out on the protein extracts. Western analysis was then carried out using both anti-myc and NARC1-specific antibodies.

[3] = system: cerebellar granule neurons (CGNs); experiment: Apoptosis after transient expression of NARC1-EGFP constructs in CGNs, Laser-Scanning Cytometry; assay type: cell-based, rat; details: EGFP construct transiently expressed in CGNs, percentage of GFP-positive cells undergoing apoptosis
Text: Cerebellar granule neurons (CGNs) were transfected with a NARC1-enhanced green fluorescent protein (EGFP) expression construct (with the EGFP sequences located at the carboxy terminus of the fusion protein). Unless otherwise indicated, the construct utilized in the following experiments contained 2073 base pairs of the rat NARC1 transcript set forth in FIG. 5. Specifically, this corresponds to nucleotides 205-2277 and amino acid residues 56-746 of SEQ ID NO:4 and SEQ ID NO:3, respectively. The polypeptide sequence encoded by the NARC1 insert utilized herein has been set forth as SEQ ID NO:9 herein. The nucleotide sequence of this insert has been set forth as SEQ ID NO:10.
To investigate NARC1-mediated neuronal cell death, transient expression of the EGFP clones was carried out in cerebellar granule neurons (CGNs). These studies are set forth in detail as follows.

Chain of furin (Homo sapiens, UniProt P09958) (P09958 108-794, species assumed): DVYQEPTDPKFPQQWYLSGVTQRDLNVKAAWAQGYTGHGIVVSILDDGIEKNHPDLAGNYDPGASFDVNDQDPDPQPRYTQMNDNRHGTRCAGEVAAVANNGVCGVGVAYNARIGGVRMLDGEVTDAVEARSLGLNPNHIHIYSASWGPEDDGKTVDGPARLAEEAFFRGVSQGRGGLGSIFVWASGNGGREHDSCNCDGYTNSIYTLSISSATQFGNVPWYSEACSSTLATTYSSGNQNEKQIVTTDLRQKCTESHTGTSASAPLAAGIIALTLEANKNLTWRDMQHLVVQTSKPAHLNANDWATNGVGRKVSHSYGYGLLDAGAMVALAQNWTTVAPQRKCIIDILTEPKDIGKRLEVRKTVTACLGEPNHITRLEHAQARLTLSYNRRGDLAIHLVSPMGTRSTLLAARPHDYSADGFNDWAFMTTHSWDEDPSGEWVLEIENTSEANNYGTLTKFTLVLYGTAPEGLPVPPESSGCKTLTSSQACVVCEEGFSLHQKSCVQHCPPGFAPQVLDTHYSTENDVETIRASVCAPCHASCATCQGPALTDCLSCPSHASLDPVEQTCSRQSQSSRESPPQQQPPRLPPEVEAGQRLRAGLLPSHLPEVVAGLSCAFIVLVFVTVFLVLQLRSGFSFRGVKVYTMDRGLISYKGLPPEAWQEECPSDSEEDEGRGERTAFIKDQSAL

| Molecule | Rescue of cell death in NARC1 transfectants (NARC1 transfectants; 24-hour exposure) | Sensitivity of cells to expression (nuclear area condensation) (Ntera2 cells) | Autoprocessing Activity (NARC1) | Resulting Cell Death Activity [3] | also measured |
| --- | --- | --- | --- | --- | --- |
| Aminoethyl-benzene sulfonyl fluoride [AEBSF] | dose-dependent rescue of cell death |  |  |  | Rescue of Caspase 9-induced cell death (Caspase 9 transfection): substantial rescue; Toxicity (NARC1 transfectants; 48-hour exposure): appeared toxic |
| N-Tosyl-lysine-chloromethylketone [TLCK] | some suggestion of rescue |  |  |  | Rescue of cell death in NARC1 transfectants (NARC1 transfectants; 48-hour exposure): increased effectiveness |
| variant of α1-antitrypsin: α1-antitrypsin variant with replacement of the reactive-site MET residue by ARG; protein-based furin inhibitor |  |  |  |  | Inhibition of in vitro conversion of proalbumin (furin [1]): inhibit the in vitro conversion of proalbumin |
| α1-PDX: α1-antitrypsin variant in which reactive center ALA-ILE-PRO-MET is replaced by ARG-ILE-PRO-ARG |  |  |  |  | Inhibition of cleavage of viral envelope glycoproteins, including HIV gp160 (furin [2]): inhibit the cleavage of viral envelope glycoproteins |
| B1 |  | equally sensitive | absence of autoprocessing; also recorded: eliminate NARC1 autoprocessing; also recorded: Absence of processing | reduced, but still substantial, pro-apoptotic effect; also recorded: somewhat reduce the pro-apoptotic effect; also recorded: Reduced activity |  |
| B2 |  | equally sensitive | eliminate NARC1 autoprocessing; also recorded: Absence of processing | somewhat reduce the pro-apoptotic effect; also recorded: Reduced activity | Autoprocessing Activity (NARC1; listed as double mutant): absence of autoprocessing; Resulting Cell Death Activity ([3]; listed as double mutant): reduced, but still substantial, pro-apoptotic effect |
